Measurements taken from publication PMC4339810 (Scientific Reports, 2015).

T1: HMGA2 (UniProt P52926 1-109)
T1 sequence: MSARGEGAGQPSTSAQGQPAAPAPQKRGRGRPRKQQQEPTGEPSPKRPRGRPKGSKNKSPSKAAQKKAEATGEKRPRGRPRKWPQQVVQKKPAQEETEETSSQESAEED

B1: recombinant HMGA1a (natural protein, UniProt P17096-1 1-107, looked up)
chain: MSESSSKSSQPLASKQEKDGTEKRGRGRPRKQPPVSPGTALVGSQKEPSEVPTPKRPRGRPKGSKNKGAAKTRKTTTTPGRKPRGRPKKLEKEEEEGISQESSEEEQ
notes: HMGA1a, isoform of HMGA1 from alternative splicing
B2: E3 (dsDNA)
DNA 1: AGAAAAACTCCATCTAAAAAAAAAAAAAAAAAAAAAAAAAAACA
DNA 2: TGTTTTTTTTTTTTTTTTTTTTTTTTTTTAGATGGAGTTTTTCT
B3: GST-NPM1 117-186 (domain or fragment, UniProt P06748 117-186, looked up)
chain: VAVEEDAESEDEEEEDVKLLSISGKRSAPGGGSKVPQKKVKLAADEDDDDDDEEDDDEDDDDDDFDDEEA
notes: also called central portion of NPM1 containing the two acidic clusters (A2 and A3)
B4: recombinant HMGA1b (natural protein, UniProt P17096-2 1-96, looked up)
chain: MSESSSKSSQPLASKQEKDGTEKRGRGRPRKQPPKEPSEVPTPKRPRGRPKGSKNKGAAKTRKTTTTPGRKPRGRPKKLEKEEEEGISQESSEEEQ
notes: HMGA1b, isoform of HMGA1 from alternative splicing
B5: HCRII (dsDNA)
DNA 1: GACACATTAATCTATAATCAAATA
DNA 2: TATTTGATTATAGATTAATGTGTC

Experiments:
[1] = target: T2, GST-NPM1 1-295 (full length) (UniProt P06748 1-294); test: pull-down; GST-fused NPM1 forms as bait with recombinant HMGA proteins; bound proteins seen by western blot with anti-HMGA1 and anti-HMGA2 antibodies; settings: both partners purified
T2 construct: nucleophosmin (NPM1), printed as full length (1-295); Plasmid provided by P.G. Pelicci; pGEX 4T3 GST-NPM1 1-295 is named as the PCR template; also called full-length GST-NPM1; GST-fused NPM1 full length (1-295); source: for EMSA eluted from Glutathione Sepharose 4B
T2 sequence (P06748 whole entry, the tested form may be a part): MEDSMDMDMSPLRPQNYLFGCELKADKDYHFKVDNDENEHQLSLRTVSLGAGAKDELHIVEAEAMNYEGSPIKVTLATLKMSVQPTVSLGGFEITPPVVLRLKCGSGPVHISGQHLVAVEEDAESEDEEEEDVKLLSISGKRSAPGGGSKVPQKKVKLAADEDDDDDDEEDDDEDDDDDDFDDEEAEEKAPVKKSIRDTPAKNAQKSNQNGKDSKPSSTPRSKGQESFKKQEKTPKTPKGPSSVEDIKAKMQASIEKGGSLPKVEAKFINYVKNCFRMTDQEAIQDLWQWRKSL

GST-NPM1 1-259 = target: T3, GST-NPM1 1-259 (UniProt P06748 1-259); test: as above; settings: both partners purified
T3 construct: nucleophosmin (NPM1), residues 1-259; Plasmid provided by P.G. Pelicci
T3 sequence (P06748 1-259): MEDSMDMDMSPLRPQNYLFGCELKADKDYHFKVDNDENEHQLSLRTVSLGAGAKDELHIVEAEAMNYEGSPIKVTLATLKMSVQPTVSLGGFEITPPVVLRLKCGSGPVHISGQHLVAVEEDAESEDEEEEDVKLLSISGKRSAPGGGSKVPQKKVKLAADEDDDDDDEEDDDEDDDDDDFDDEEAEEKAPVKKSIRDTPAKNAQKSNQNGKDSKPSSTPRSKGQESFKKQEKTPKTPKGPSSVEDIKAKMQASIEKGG

GST-NPM1 1-186 = target: T4, GST-NPM1 1-186 (UniProt P06748 1-186); test: as above; settings: both partners purified
T4 construct: Plasmid provided by P.G. Pelicci

HMGA1a [2] = target: T5, HMGA1a (UniProt P17096 1-107); test: EMSA; no NPM1; two complexes; EMSA: 4 pmol HMGA preincubated 10 min at 4°C with GST-NPM1/GST in 25 mM Tris/HCl pH 8, 5 mM GSH (8 uL); then 0.1 pmol DNA for 10 min in 180 mM NaCl, 1 mM MgCl2
recombinant HMGA1a = target: B1; test: pull-down; GST-fused NPM1 forms as bait with recombinant HMGA proteins; bound proteins seen by western blot with anti-HMGA1 and anti-HMGA2 antibodies; settings: both partners purified
recombinant HMGA1b = target: B4; test: as above; settings: both partners purified
HMGA2 = target: T1, HMGA2; test: EMSA; no NPM1; EMSA: 4 pmol HMGA preincubated 10 min at 4°C with GST-NPM1/GST in 25 mM Tris/HCl pH 8, 5 mM GSH (8 uL); then 0.1 pmol DNA for 10 min in 180 mM NaCl, 1 mM MgCl2
HMGA1a [3] = target: T5, HMGA1a; test: as above

| binding result [1] | binding result (GST-NPM1 1-259) | binding result (GST-NPM1 1-186) | Binder | further results |
| --- | --- | --- | --- | --- |
| binds | binds | binds | B1 | – |
| – | – | – | B2 | binding result (HMGA1a [2]): binds |
| – | – | – | B3 | binding result (recombinant HMGA1a): binds; binding result (recombinant HMGA1b): binds |
| binds | binds | binds | B4 | – |
| – | – | – | B5 | binding result (HMGA2): binds; binding result (HMGA1a [3]): binds |
